Laboratory results published in article PMC8191759.

Legend:
Assay in all cases: cross-linking
NSP8 F92A (SARS-CoV-2) = molecular target: NSP8 F92A (SARS-CoV-2)
NSP8 M90A (SARS-CoV-2) = molecular target: NSP8 M90A (SARS-CoV-2)
NSP8 M94A (SARS-CoV-2) = molecular target: NSP8 M94A (SARS-CoV-2)

NSP8 F92A (natural protein)
stoichiometry N (NSP8 F92A (SARS-CoV-2)): 2

NSP8 M90A (natural protein)
stoichiometry N (NSP8 M90A (SARS-CoV-2)): 2

NSP8 M94A (natural protein)
stoichiometry N (NSP8 M94A (SARS-CoV-2)): 2
